Consider four substances from US20250034224A1.

Some results are limits rather than exact numbers.

Test in all cases: cell-based or functional assay
Experiment [1] addresses IL2 receptors (on lymphocyte populations of human PBMCs).
Experiment [2] has as its target Chimeric antigen receptor containing a VL-VH scFv (VL and VH of antibody 17363N) recognizing T3 (HLA).
For experiment [3], the target named is OT-I TCR (Ovalbumin(257-264)-specific) on CD8+ T cells of an OT-I TCR transgenic mouse (mouse). Particulars: scale: orders of magnitude higher potency than T5-IL2M6.

“IL2M2: Human IL2-(GGGGS)4-human IL-2Ra-GGGGS-Fc (Fc fusion)” gave a potency in STAT5 phosphorylation on multiple lymphocyte populations, against IL2M0 (fold less potent than IL2M0) in experiment [1] of 100.

In the case of “IL2M5: Fc-GGGGS-human IL2 (N88D, C125A) fusion (Fc fusion)”, the potency in STAT5 phosphorylation on multiple lymphocyte populations, against IL2M4 (fold less potent than IL2M4) in experiment [1] was greater than 100.

Take “T3-IL2M6: HPV16E7(11-19)-GCGGS-(GGGGS)2-hB2m-(GGGGS)4-hHLA.A2-(GGGGS)4-Fc-(GGGGS)3-hIL2(H16A, F42A) (peptide-MHC)”: the frequency of viable CAR-T (eGFPPos) cells at day 3 of expansion (start 38%) in experiment [2] worked out at 36%.

“T4-IL2M6: OVA(257-264)-GCGGS-(GGGGS)2-mB2m-(GGGGS)4-mH2Kb-(GGGGS)4-Fc-(GGGGS)3-hIL2(H16A, F42A) (peptide-MHC)”: in experiment [3], the intracellular STAT5 phosphorylation in gated CD8+ T cells of OT-I splenocytes worked out at 2.
